Values quoted from earlier work, collected in PMC6611644.
Several values for one entry are separate records, joined by “and”; a condition that tells them apart may be missing. Equal values may be shown once.

Target: GPIbα (Homo sapiens) (UniProt P07359)
Assay: SPR

Chain of UniProt P07359 (P07359 17-306): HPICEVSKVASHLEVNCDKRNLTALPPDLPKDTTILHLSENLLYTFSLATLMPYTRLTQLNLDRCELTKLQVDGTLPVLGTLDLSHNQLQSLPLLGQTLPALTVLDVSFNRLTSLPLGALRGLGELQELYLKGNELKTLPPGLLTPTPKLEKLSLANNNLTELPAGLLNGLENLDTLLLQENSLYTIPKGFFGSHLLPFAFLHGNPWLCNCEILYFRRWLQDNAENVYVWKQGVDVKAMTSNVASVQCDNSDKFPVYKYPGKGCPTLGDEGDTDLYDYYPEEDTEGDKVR

Row | Substance | Kd
1 | GspB BR (from UniProt Q939N5) | 23.8 nM
2 | Hsa BR (from UniProt A8AWU7) | 5.05 nM and 30.5 nM
